# B1: TPR t1 (parent)
# chain: GACCAAUCUGCCCUCAGAGCUCGAGAACAUCUUCGGAUGCAGAGGAGGCAGGCUUCGGUGGCGCGAUAGCGCCAACGUCCUCAACCUCCAAUGCAUCCCACCACAUGAUGAUGCCUGAAGAGCCUUGGUUUUUUG
# Variants of: B1
# Test: polymerase ribozyme fitness, log enrichment relative to wild type (log ratio); higher = more active; in vitro selection for triplet polymerase activity
# How it was run: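 Fitness is a logarithmic measure of how a genotype enriched relative to the wild type, with replicate averages weighted by inverse variance. The logarithm uses base 2, and enrichment came from Illumina sequencing of input and output libraries. Those libraries were PCR-built, transcribed mutants of each subunit of a heterodimeric triplet polymerase ribozyme, passed through one triplicate in vitro selection round that included frozen incubation at −7 °C, gel excision of extended constructs and streptavidin-bead capture. Genotypes were kept only if they had ≥10 input reads and ≥1 read per output.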
row,Variant,polymerase ribozyme fitness (log ratio)
1,GACCAAUCUGCCCUCAGAGCUCGAGAACAUCUUCGGAUGCAGAGGAGGCAGGGUUCAGUGGCGCGGUAGAGCCAACGUCCUCAACCUCCAAUGCAUCCCACCACAUGAUGAUUCCUGAAGAGCCUUGGUUUUUUG,-7.08
2,GACCAAUCUGCCCUCAGAGCUCGAGAACAUCUUCGGAUGCAGAGGAGGCAGGGUUCGGUGUCGCGAUAGCGCCAACUUCCUCAACCUCCAAUGCAUCCCAGCACAUGAUGAUGCCUGAACAGCCUUGGUUUUUUG,-3.46
3,GACCAAUCUGCCCUCAGAGCUCGAGAACAUCUUCGGAUGCAGAGGAGGCAGGGUUCGGGGGCGCGAUAGCGCCAACGUCCUCAACCUCCAAUGGAUCCCACCACAUGAUGAUGCCUGAAGAGCCUUGGUUUUUUG,-0.648
4,GACCAAUCUGCCCUCAGAGCUCGAGAACAUCUUCGGAUGCAGAGGAGGCAGGUUUGGGUGGCGCGAUAGCGCCAACGUCCUCAACCUCCAAUGCAUCCCAACACAUGAUGAUGCCUGAAGCGCCUUGGUUUUUUC,0.621
5,GACCAAUCUGCCCUCAGAGCUCGAGAACAUCUUCGGAUGCAGAGGAGGCAGGGUUCGGUGGCGCGAUAGCGCCAACGUCCUCAACCUCCAAUGCAUCCCACCACAUGAUGAUGCCUGAAGAACCUUGGUUUUUUG,-1.37
6,GACCAAUCUGCCCUCAGAGCUCGAGAACAUCUUCGGAUGCAGAGGAGGCAGGGUUCGGUGGCGCGAUAGCGCCAACGUCCUCAACCGCCAAUGCAUCCCACCACAUGAUGAUGCCUGAAGAGCCUUUGUUUUGUG,-0.973
7,GACCAAUCUGCCCUCAGAGCUCGAGAACAUCUUCGGAUGCAGAGGAGGCAGGUUUCGGUGGCGCGAUAGCGACAACGUCCUCAACCUCCUAUGCAUCCCAACACAUGAUGAUGCCUGAAGAGCCUUGGUUUUUUG,-2.92
8,GACCAAUCUGCCCUCAGAGCUCGAGAACAUCUUCGGAUGCAGAGGAGGCAGGUUUCGGUGGCGCGAUAGCGCCAACGUCCUCAACCUCCAAUGCAUCCCACCUCAUGAUGAUGCCCUCAGAGCCUUGGUUUUUUG,-5.82
9,GACCAAUCUGCCCUCAGAGCUCGAGAACAUCUUCGGAUGCAGAGGAGGCAGGGUUCGGUAGCGCGAUAGCGCCAACGUCCUCAACCUCCAAUGCAUCCCACCAAAUGAUGAUGCCUGAAGAGCCAUGGUUAUUUG,-3.15
10,GACCAAUCUGCCCUCAGAGCUCGAGAACAUCUUCGGAUGCAGAGGAGGCAGGGUUCGGUGGCGCGAUAGCGCCAACGUCCUCAACCUCCAAUGCAUCCCACCACAUGAUUAUGCCUGAAGAGCCUUGGUUUUUUG,-1.58
11,GACCAAUCUGCCCUCAGAGCUCGAGAACAUCUUCGGAUGCAGAGGAGGCAGGGUUCGGUGGCGCGAUAGCGCCAACGUCCUCAACCUCCAAUGCAUCCCACCACAUGAUGAUGCCUGAAGAGCCUUGGUUUUUUU,-1.51
12,GACCAAUCUGCCCUCAGAGCUCGAGAACAUCUUCGGAUGCAGAGGAGGCAGGUUUCGGUGGCGCGAUAGCGCCAACGUCCUCAACCUCCAUUGCAUCCCACCACAUGAUGAUGCCUGAAGAGCCUUGGUUUUUUG,-2.05
13,GACCAAUCUGCCCUCAGAGCUCGAGAACAUCUUCGGAUGCAGAGGAGGCAGGUUUCGGUGGUGCGAUAGCGCCAACGUCCUCAACCUCCAAUGCAUCCCACCACAUGAUGUUGCCUGUAGAGCCUUGGUUUUUUG,-3.63
14,GACCAAUCUGCCCUCAGAGCUCGAGAACAUCUUCGGAUGCAGAGGAGGCAGGGUUCGGUGGCGCGAUAGCGCCAACGUCCUCAACCUCCAAUGCAUCCCACCACAAGAUGAUGCCUGAAGAGCCUUGGUUUUUUG,-0.474
15,GACCAAUCUGCCCUCAGAGCUCGAGAACAUCUUCGGAUGCAGAGGAGGCAGGUUUCGGUGGGGCGAUAGUGCCAACGUCCUCAACCUCCAAUGCAUCCCACCACAUGAUAAUGCCUGAAGAGCCUUGGUUUUUUG,-6.1
16,GACCAAUCUGCCCUCAGAGCUCGAGAACAUCUUCGGAUGCAGAGGAGGCAGGGUUCGGUUGCGCGAUAGCGCCAACGUCCUCAACCUCCAAUGCAUCCCACCAAAUGAUGAUGUCUGAAGAGCCUUGGUUUUUUG,-5.11
17,GACCAAUCUGCCCUCAGAGCUCGAGAACAUCUUCGGAUGCAGAGGAGGCAGGGUUCGGUGGCGCGAUAGCCUCAACGUCCUCAACCUCCAAUGCAUCCCACCACAUGAUGAUGCCUGAAGAGCCUUGGUUUUUUG,-0.79
18,GACCAAUCUGCCCUCAGAGCUCGAGAACAUCUUCGGAUGCAGAGGAGGCAGGUUUCGGUGGCGCGAUAGCGCCAGCGUCCUCAUCCUCCAAUGCAUCCCACCACAUGAUGAUGCCUGAAGAGCCUUGGUUUUUUG,-0.747
19,GACCAAUCUGCCCUCAGAGCUCGAGAACAUCUUCGGAUGCAGAGGAGGCAGGUUUCGGUGGCGCGAUAGCGCCAACGUCCUCAACCUCCUAUGCAUCCCAACACAUGAUGAUGCCUGAAGAGCCUUGGUUUUUUG,-2.09
20,GACCAAUCUGCCCUCAGAGCUCGAGAACAUCUUCGGAUGCAGAGGAGGCAGGUUUCGGUGGCGCGAUAGUGCCAACGUCCUCAACCUCCAAUGCAUCCCACCACAUGAUGAUGCCUGAAGAGCCUUGGUUUUUUG,-0.962
21,GACCAAUCUGCCCUCAGAGCUCGAGAACAUCUUCGGAUGCAGAGGAGGCAGGGUUCGGUGGCGCGAUAGCGCCAACGUCCUCAACCUCCAAUGCAUCCCACCAUAUGAUGAUGUCUGAAUAGGAUUGGUUUUUUG,-0.873
